Data reported in PMC2756145.
Positions count from the first letter of the chain named.

Tests used:
Assay in all cases: filter binding
Pot1-DBD_Q91A = biological target: T1, Pot1-DBD_Q91A (Schizosaccharomyces pombe, UniProt O13988 1-389, Q91A)
T1 sequence: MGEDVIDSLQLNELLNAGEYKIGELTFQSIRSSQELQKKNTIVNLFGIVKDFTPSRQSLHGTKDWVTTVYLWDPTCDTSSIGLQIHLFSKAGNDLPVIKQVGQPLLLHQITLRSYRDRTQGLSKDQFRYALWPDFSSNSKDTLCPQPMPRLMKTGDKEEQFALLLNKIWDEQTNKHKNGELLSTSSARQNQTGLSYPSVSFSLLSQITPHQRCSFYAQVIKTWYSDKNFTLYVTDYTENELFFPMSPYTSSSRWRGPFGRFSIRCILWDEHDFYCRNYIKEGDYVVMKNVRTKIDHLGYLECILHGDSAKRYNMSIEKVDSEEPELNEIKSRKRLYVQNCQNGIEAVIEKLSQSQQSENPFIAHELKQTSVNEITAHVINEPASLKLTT

Pot1-DBD_L122A = biological target: T2, Pot1-DBD_L122A (Schizosaccharomyces pombe, UniProt O13988 1-389, L122A)
T2 sequence: T1 sequence with A91Q, L122A

Pot1-DBD = biological target: T3, Pot1-DBD (Schizosaccharomyces pombe, UniProt O13988 1-389)
T3 sequence: T1 sequence with A91Q

B1: 12mer (ssDNA)
DNA: GGTTACGGTTAC
Kd (Pot1-DBD_Q91A): 7 ± 0.6 nM
Kd (Pot1-DBD_L122A): 90 ± 7 nM
Kd (Pot1-DBD): 1 ± 0.1 nM
